According to article PMC9687312:

Columns and labels:
[1] = target: DC-SIGN Biot-ECD (biotinylated extracellular domain of DC-SIGN) (UniProt Q9NNX6); experiment: SPR
[2] = target: MGL Biot-ECD (biotinylated extracellular domain of MGL) (UniProt Q8IUN9); experiment: SPR
Sequence of UniProt Q8IUN9 (Q8IUN9 61-316): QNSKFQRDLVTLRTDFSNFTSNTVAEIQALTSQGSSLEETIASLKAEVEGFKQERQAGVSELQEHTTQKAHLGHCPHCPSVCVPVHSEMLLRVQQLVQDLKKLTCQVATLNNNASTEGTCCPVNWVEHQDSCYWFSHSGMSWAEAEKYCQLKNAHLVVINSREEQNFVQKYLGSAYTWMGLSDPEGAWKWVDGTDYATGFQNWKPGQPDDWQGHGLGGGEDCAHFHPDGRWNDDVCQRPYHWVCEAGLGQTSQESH

Sequence of UniProt Q9NNX6 (Q9NNX6 59-404): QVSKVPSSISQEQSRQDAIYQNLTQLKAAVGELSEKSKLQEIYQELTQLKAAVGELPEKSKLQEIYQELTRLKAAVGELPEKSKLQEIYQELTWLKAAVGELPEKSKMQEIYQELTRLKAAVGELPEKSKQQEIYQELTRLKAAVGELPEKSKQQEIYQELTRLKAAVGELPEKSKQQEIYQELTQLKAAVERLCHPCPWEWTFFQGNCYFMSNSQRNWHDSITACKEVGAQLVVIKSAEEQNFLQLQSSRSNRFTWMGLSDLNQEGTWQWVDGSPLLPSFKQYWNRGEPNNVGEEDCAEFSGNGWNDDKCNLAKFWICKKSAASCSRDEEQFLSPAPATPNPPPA

“ADD KGE RBD (ADD-KGE/RBD-SC covalent complex) (from UniProt Q2Y0H9 1-544; P0DTC2 320-554)” was tested, and the Kd [1] was 0.34 nM and the Kd [2] was 66.1 nM.
